Results as given in PMC9958131 (Nature Communications, 2023).

B1: P12035 (protein, UniProt P12035 1-628, looked up)
chain: MSRQASKTSGGGSQGFSGRSAVVSGSSRMSCVAHSGGAGGGAYGFRSGAGGFGSRSLYNLGGNKSISISVAAGGSRAGGFGGGRSSCAFAGGYGGGFGSGYGGGFGGGFGGGRGMGGGFGGAGGFGGAGGFGGAGGFGGPGGFGGSGGFGGPGSLGSPGGFGPGGFPGGIQEVTINQSLLQPLNVEIDPQIGQVKAQEREQIKTLNNKFASFIDKVRFLEQQNKVLETKWNLLQQQGTSSISGTNNLEPLFENHINYLRSYLDNILGERGRLDSELKNMEDLVEDFKKKYEDEINKRTAAENEFVTLKKDVDSAYMNKVELQAKVDALIDEIDFLRTLYDAELSQMQSHISDTSVVLSMDNNRSLDLDSIIAEVRAQYEDIAQRSKAEAEALYQTKLGELQTTAGRHGDDLRNTKSEIIELNRMIQRLRAEIEGVKKQNANLQTAIAEAEQHGEMALKDANAKLQELQAALQQAKDDLARLLRDYQELMNVKLALDVEIATYRKLLEGEEYRMSGECPSAVSISVVSSSTTSASAGGYGGGYGGGMGGGLGGGFSAGGGSGSGFGRGGGGGIGGGFGGGSSGFSGGSGFGSISGARYGVSGGGFSSASNRGGSIKFSQSSQSSQRYSR
modifications: full-length
B2: B1AHL2 (protein)
chain: MERAAPSRRVPLPLLLLGGLALLAAGVDADVLLEACCADGHRMATHQKDCSLPYATESKECRAVGLASLCQDLNGAWAVWKVGRASQAEGTASARAQRRGMVQEQCCHSQLEELHCATGISLANEQDRCATPHGDNASLEATFVKRCCHCCLLGRAAQAQGQSCEYSLMVGYQCGQVFQACCVKSQETGDLDVGGLQETDKIIEVEEEQEDPYLNDRCRGGGPCKQQCRDTGDEVVCSCFVGYQLLSDGVSCEDVNECITGSHSCRLGESCINTVGSFRCQRDSSCGTGYELTEDNSCKDIDECESGIHNCLPDFICQNTLGSFRCRPKLQCKSGFIQDALGNCIDINECLSISAPCPIGHTCINTEGSYTCQKNVPNCGRGYHLNEEGTRCVDVDECAPPAEPCGKGHRCVNSPGSFRCECKTGYYFDGISRMCVDVNECQRYPGRLCGHKCENTLGSYLCSCSVGFRLSVDGRSCEDINECSSSPCSQECANVYGSYQ
B3: Q02413 (protein, UniProt Q02413 1-1049, looked up)
chain: MDWSFFRVVAMLFIFLVVVEVNSEFRIQVRDYNTKNGTIKWHSIRRQKREWIKFAAACREGEDNSKRNPIAKIHSDCAANQQVTYRISGVGIDQPPYGIFVINQKTGEINITSIVDREVTPFFIIYCRALNSMGQDLERPLELRVRVLDINDNPPVFSMATFAGQIEENSNANTLVMILNATDADEPNNLNSKIAFKIIRQEPSDSPMFIINRNTGEIRTMNNFLDREQYGQYALAVRGSDRDGGADGMSAECECNIKILDVNDNIPYMEQSSYTIEIQENTLNSNLLEIRVIDLDEEFSANWMAVIFFISGNEGNWFEIEMNERTNVGILKVVKPLDYEAMQSLQLSIGVRNKAEFHHSIMSQYKLKASAISVTVLNVIEGPVFRPGSKTYVVTGNMGSNDKVGDFVATDLDTGRPSTTVRYVMGNNPADLLAVDSRTGKLTLKNKVTKEQYNMLGGKYQGTILSIDDNLQRTCTGTININIQSFGNDDRTNTEPNTKITTNTGRQESTSSTNYDTSTTSTDSSQVYSSEPGNGAKDLLSDNVHFGPAGIGLLIMGFLVLGLVPFLMICCDCGGAPRSAAGFEPVPECSDGAIHSWAVEGPQPEPRDITTVIPQIPPDNANIIECIDNSGVYTNEYGGREMQDLGGGERMTGFELTEGVKTSGMPEICQEYSGTLRRNSMRECREGGLNMNFMESYFCQKAYAYADEDEGRPSNDCLLIYDIEGVGSPAGSVGCCSFIGEDLDDSFLDTLGPKFKKLADISLGKESYPDLDPSWPPQSTEPVCLPQETEPVVSGHPPISPHFGTTTVISESTYPSGPGVLHPKPILDPLGYGNVTVTESYTTSDTLKPSVHVHDNRPASNVVVTERVVGPISGADLHGMLEMPDLRDGSNVIVTERVIAPSSSLPTSLTIHHPRESSNVVVTERVIQPTSGMIGSLSMHPELANAHNVIVTERVVSGAGVTGISGTTGISGGIGSSGLVGTSMGAGSGALSGAGISGGGIGLSSLGGTASIGHMRSSSDHHFNQTIGSASPSTARSRITKYSTVQYSK
modifications: full-length
B4: Q8N1N4 (protein)
chain: MSLSPCRAQRGFSARSACSARSRGRSRGGFSSRGGFSSRSLNSFGGCLEGSRGSTWGSGGRLGVRFGEWSGGPGLSLCPPGGIQEVTINQNLLTPLKIEIDPQFQVVRTQETQEIRTLNNQFASFIDKVRFLEQQNKVLETKWHLLQQQGLSGSQQGLEPVFEACLDQLRKQLEQLQGERGALDAELKACRDQEEEYKSKYEEEAHRRATLENDFVVLKKDVDGVFLSKMELEGKLEALREYLYFLKHLNEEELGQLQTQASDTSVVLSMDNNRYLDFSSIITEVRARYEEIARSSKAEAEALYQTKYQELQVSAQLHGDRMQETKVQISQLHQEIQRLQSQTENLKKQNASLQAAITDAEQRGELALKDAQAKVDELEAALRMAKQNLARLLCEYQELTSTKLSLDVEIATYRRLLEGEECRMSGECTSQVTISSVGGSAVMSGGVGGGLGSTCGLGSGKGSPGSCCTSIVTGGSNIILGSGKDPVLDSCSVSGSSAGS
B5: Q7Z3Y7 (protein)
chain: MSLQFSNGSRHVCLRSGAGSVRPLNGGAGFAGSSACGGSVAGSEFSCALGGGLGSVPGGSHAGGALGNAACIGFAGSEGGLLSGNEKVTMQNLNDRLASYLDNVRALEEANAELERKIKGWYEKYGPGSCRGLDHDYSRYHLTIEDLKNKIISSTTTNANVILQIDNARLAADDFRLKYENELTLHQNVEADINGLRRVLDELTLCRTDQELQYESLSEEMTYLKKNHEEEMKALQCAAGGNVNVEMNAAPGVDLAVLLNNMRAEYEALAEQNRKDAEAWFNEKSASLQQQISHDSGAATFARSQLTEMRRTLQTLEIQLQSLMATKHSLECSLTETESNYCTQLAQIQAQIGALEEQLHQVRTETEGQKLEYEHLLDVKVHLEKEIETYCRLIDGDGNSCSKSKGFGSGSPGNSSKDLSKTTLVKTVVEELDQRGKVLSSRIHSIEEKTSKMTNGKTEQRVPF
B6: P01871 (protein)
chain: GSASAPTLFPLVSCENSPSDTSSVAVGCLAQDFLPDSITFSWKYKNNSDISSTRGFPSVLRGGKYAATSQVLLPSKDVMQGTDEHVVCKVQHPNGNKEKNVPLPVIAELPPKVSVFVPPRDGFFGNPRKSKLICQATGFSPRQIQVSWLREGKQVGSGVTTDQVQAEAKESGPTTYKVTSTLTIKESDWLGQSMFTCRVDHRGLTFQQNASSMCVPDQDTAIRVFAIPPSFASIFLTKSTKLTCLVTDLTTYDSVTISWTRQNGEAVKTHTNISESHPNATFSAVGEASICEDDWNSGERFTCTVTHTDLPSPLKQTISRPKGVALHRPDVYLLPPAREQLNLRESATITCLVTGFSPADVFVQWMQRGQPLSPEKYVTSAPMPEPQAPGRYFAHSILTVSEEEWNTGETYTCVVAHEALPNRVTERTVDKSTGKPTLYNVSLVMSDTAGTCY
B7: Q5T749 (protein)
chain: MCDQQQIQCRLPLQQCCVKGPSFCSSQSPFAQSQVVVQAPCEMQIVDCPASCPVQVCQVSDQAPCQSQTTQVKCQSKTKQVKGQAQCQSKTTQVKGQAASQSQTSSVQSQAPCQSEVSYVQCEASQPVQTCFVECAPVCYTETCYVECPVQNYVPCPAPQPVQMYRGRPAVCQPQGRFSTQCQYQGSYSSCGPQFQSRATCNNYTPQFQLRPSYSSCFPQYRSRTSFSPCVPQCQTQGSYGSFTEQHRSRSTSRCLPPPRRLQLFPRSCSPPRRFEPCSSSYLPLRPSEGFPNYCTPPRRSEPIYNSRCPRRPISSCSQRRGPKCRIEISSPCCPRQVPPQRCPVEIPPIRRRSQSCGPQPSWGASCPELRPHVEPRPLPSFCPPRRLDQCPESPLQRCPPPAPRPRLRPEPCISLEPRPRPLPRQLSEPCLYPEPLPALRPTPRPVPLPRPGQCEIPEPRPCLQPCEHPEPCPRPEPIPLPAPCPSPEPCRETWRSPSP
B8: Q12805 (protein, UniProt Q12805 1-493, looked up)
chain: MLKALFLTMLTLALVKSQDTEETITYTQCTDGYEWDPVRQQCKDIDECDIVPDACKGGMKCVNHYGGYLCLPKTAQIIVNNEQPQQETQPAEGTSGATTGVVAASSMATSGVLPGGGFVASAAAVAGPEMQTGRNNFVIRRNPADPQRIPSNPSHRIQCAAGYEQSEHNVCQDIDECTAGTHNCRADQVCINLRGSFACQCPPGYQKRGEQCVDIDECTIPPYCHQRCVNTPGSFYCQCSPGFQLAANNYTCVDINECDASNQCAQQCYNILGSFICQCNQGYELSSDRLNCEDIDECRTSSYLCQYQCVNEPGKFSCMCPQGYQVVRSRTCQDINECETTNECREDEMCWNYHGGFRCYPRNPCQDPYILTPENRCVCPVSNAMCRELPQSIVYKYMSIRSDRSVPSDIFQIQATTIYANTINTFRIKSGNENGEFYLRQTSPVSAMLVLVKSLSGPREHIVDLEMLTVSSIGTFRTSSVLRLTIIVGPFSF
modifications: full-length
B9: A0A0G2JMB2 (protein)
chain: ASPTSPKVFPLSLDSTPQDGNVVVACLVQGFFPQEPLSVTWSESGQNVTARNFPPSQDASGDLYTTSSQLTLPATQCPDGKSVTCHVKHYTNPSQDVTVPCPVPPPPPCCHPRLSLHRPALEDLLLGSEANLTCTLTGLRDASGATFTWTPSSGKSAVQGPPERDLCGCYSVSSVLPGCAQPWNHGETFTCTAAHPELKTPLTANITKSGNTFRPEVHLLPPPSEELALNELVTLTCLARGFSPKDVLVRWLQGSQELPREKYLTWASRQEPSQGTTTFAVTSILRVAAEDWKKGDTFSCMVGHEALPLAFTQKTIDRLAGKPTHVNVSVVMAEVDGTCY
B10: P0DPH8 (protein, UniProt P0DPH8 1-450, looked up)
chain: MRECISIHVGQAGVQIGNACWELYCLEHGIQPDGQMPSDKTIGGGDDSFNTFFSETGAGKHVPRAVFVDLEPTVVDEVRTGTYRQLFHPEQLITGKEDAANNYARGHYTIGKEIVDLVLDRIRKLADLCTGLQGFLIFHSFGGGTGSGFASLLMERLSVDYGKKSKLEFAIYPAPQVSTAVVEPYNSILTTHTTLEHSDCAFMVDNEAIYDICRRNLDIERPTYTNLNRLIGQIVSSITASLRFDGALNVDLTEFQTNLVPYPRIHFPLATYAPVISAEKAYHEQLSVAEITNACFEPANQMVKCDPRHGKYMACCMLYRGDVVPKDVNAAIATIKTKRTIQFVDWCPTGFKVGINYQPPTVVPGGDLAKVQRAVCMLSNTTAIAEAWARLDHKFDLMYAKRAFVHWYVGEGMEEGEFSEAREDLAALEKDYEEVGVDSVEAEAEEGEEY
modifications: full-length

What follows are molecules tested on PAD2 and PAD4 (assay: Citrullination site mapping of fibrinogen and vimentin by trypsin digestion and mass spectrometry (protein-level sheet, one search over native, PAD2-cit and PAD4-cit samples)). Details: modified residues found per protein; Deamidated [R..] = deamidated (citrullinated) arginine positions; trypsin digest, Sequest HT; not split by sample (native, PAD2-citrullinated, PAD4-citrullinated fibrinogen and vimentin).
Type: biochemical, human
From the text: Description: Raw mass spectrometry data for proteolytic mapping of fibrinogen, vimentin, and hnRNP A2/B1 by cathepsins B, S, and H (sheets 1-6); citrullination site mapping of fibrinogen and vimentin by trypsin digestion (sheets 7-8); and the natural antigen processing assay with native, PAD2-citrullinated (PAD2-cit), and PAD4-citrullinated (PAD4-cit) fibrinogen (sheets 9-11).

| Molecule | Modifications |
| --- | --- |
| B1 | Deamidated [R217] |
| B2 | Deamidated [R217; R219; R325; R327; R381; R391; R505; R623; R643; R671] |
| B3 | Deamidated [R416; R607] |
| B4 | Deamidated [R130] |
| B5 | Deamidated [R96] |
| B6 | Deamidated [R423] |
| B7 | Deamidated [R211; R248; R371; R554] |
| B8 | Deamidated [R185; R208; R227; R328; R345] |
| B9 | Deamidated [R240; R250; R260] |
| B10 | Deamidated [R64; R84; R105; R339; R373; R422] |
